Reference: patent US9926349B2, “Chimeric molecule useful in immunotherapy for leishmaniasis, which includes a fragment of the PFR1 protein of leishmania infantum with specific immunodominant epitopes” (priority 2011, dated 2018)

Tested on: alveolar macrophages of naive rat
Assay: Nitric oxide production by alveolar macrophages stimulated with recombinant protein
Type: cell-based
Conditions: for NO activation in the presence of polymyxin B: plus polymyxin B (LPS activity-induced inhibitor)
Excerpt: FIG. 2. Measurement of Nitric Oxide (NO) concentration in the supernatant of macrophages culture stimulated with lipopolysaccharide (LPS); lipopolysaccharide+polymyxin B (LPS+PolB); purified PFR-1 protein (PFR-1); purified PFR-1 protein+polymyxin B (PFR1+PolB); L-NG-monomethyl arginine citrate (LNMMA); purified PFR-1 protein+L-NG-monomethyl arginine citrate (PFR1+LNMMA). Concentration is expressed in μmol/liter.
PFR1 protein of Leishmania infantum is encompassed within the family of characteristic proteins of paraflagellar rod proteins from kinetoplastids. In FIG. 1, we show the PFR1 recombinant protein of L. infantum expressed in a prokaryotic expression system and purified by affinity chromatography. […] This activation of nitric oxide production confers to the aforementioned protein a relevant immunological feature because NO favors the clearance of the amastigotes of Leishmania that multiply within the host macrophages. In FIG. 2, the values of NO production by these alveolar macrophages are collected by stimulating them with LPS (control) and the PFR1 protein.

| Molecule | NO activation in the presence of polymyxin B | production of nitric oxide (NO) by alveolar macrophages (naive rat alveolar macrophages stimulated with the protein) | NO activation in the presence of LNMMA (plus L-NG-monomethyl arginine, nitric oxide synthase inhibitor) |
| --- | --- | --- | --- |
| lipopolysaccharide [LPS, reference compound] | inhibited by the presence of polymyxin B | – | – |
| PFR1 protein: PFR1 recombinant protein of L. infantum expressed in a prokaryotic expression system and purified by affinity chromatography (protein, listed as Leishmania infantum, /mol_type=”protein“ /organism=”Leishmania infantum“; REGION 1..595 ”PFR1 protein aminoacids“; REGION 160..595 ”SEQ ID No 9“; REGION 160..548 ”SEQ ID No 10“; REGION 160..385 ”SEQ ID No 11“; PEPTIDE 103..113 ”SEQ ID No 1“; PEPTIDE 150..159 ”SEQ ID No 2“; PEPTIDE 165..173 ”SEQ ID No 4“; PEPTIDE 204..212 ”SEQ ID No 5“; PEPTIDE 222..230 ”SEQ ID No 6“; PEPTIDE 373..382 ”SEQ ID No 3“) MMTPEDATGLEAARKQKIHNLKLKTACLENEELVQELHISDWSETQRQKLRGAHEKGEELLASVEVGTKWNLMEAYDLAKLMRVCGLEMSQRELYRPEDKPQFMDIIGVKKVLQDLRQNRNKTRVVSFTQLIDNSIAKMEKVEEELRRSQLDATQLAQVPTRTVKMMEDIMNATQIQNALASTDDQMQTQLAQLEKTNEIQNVAMHDGETQVAEEQMWTKVQLQERLIELLKDKFGLIGKCEEENAQFKEIYEVQKQANQETSQMKDAKRRLRQRCETDLKHIQDAIQKADLEDAEAVKRYPRNKERSERAIKENEEMQEEAWNKIQDLERQLQNLGTDRFDEVKRRIEEVDREEKRRVENAQFLEIAAQHKKLLELTVYNCDLAMRCTGLVEELVSEGCAGVKARYDKTNQDLAALRLEVHKEHLEYFRMLYLTLGSLIYKKEKRLEEIDRNIRLAHIQLEFCVETFDPNAKKHADMKKELYRLRQGVEEELAMLKEKQAAALDDFKESEEALDAAGIEFSHPVDENNEEVLTRRSKMVEYKSHLTKEEEVRIAAEREEIKRARLLRSGGESAAAQITSGSMNADYAASAQLEL | unlike the one detected for PFR1 protein, the activation observed for LPS is inhibited by the presence of polymyxin B | ability to activate the production of nitric oxide (NO) | inhibits the NO activation induced by the PFR1 protein |
